Experiments:
[1] = substrate: C[C@]12CC[C@@H]3c4ccc(O)cc4CC[C@H]3[C@@H]1CC[C@@H]2O[C@@H]1O[C@H](C(=O)O)[C@@H](O)[C@H](O)[C@H]1O; test: (§1) TP_TRANSPORTER: uptake in Xenopus laevis oocytes; assay type: functional, cell-based, Oocyte
[2] = substrate: [H][C@@]12CC=C3C[C@@H](OS(=O)(=O)O)CC[C@]3(C)[C@@]1([H])CC[C@]1(C)C(=O)CC[C@@]21[H]; test: as §1; assay type: functional, cell-based, Oocyte

B1: Solute carrier organic anion transporter family member 1A1 (Mus musculus) (protein)
chain: MEETEKKVATQEGRFFSKMKVFLMSLTCAYLAKSLSGVYMNSMLTQIERQFGIPTSVVGFITGSFEIGNLLLIVFVSYFGRKLHRPIIIGVGCVVMGLGCFLMASPHFLMGRYKYETTISPTSNLSSNSFLCIENRTQTLKPTQDPTECVKEIKSLMWIYVLIGNTMRGIGETPIMPLGISYIEDFAKSENSPLYIGILEMGKIVGPIIGLLLGSFFARVYVDIGSVNTDDLTITPTDTRWVGAWWIGFLVCAGVNILTSIPFFFFPKTLPKKELQDNVDVTKYEKVEKHRERAKKENLGITKDFLPFMKSLCCNPIYMLFSLTSVLQINGFASTFTFLPKYLEQQYGKSTSEAVFLIGVYSLPPVCLGYLISGFIMKKFKITVKKAAYIAFGLSLSEYFIFLCNYLLTCDNFPVAGLTTSYKGVQHPLYGEKNVLADCNTRCSCLTDTWDPVCGDNGLAYMSACLAGCEKSVGTGTNMVFQNCSCIGSSGNSSAVLGLCKKGPECDNKLQYFLIKSVFSSFIFSLAAIPGYMVLLRCVKSEEKSIGVGLHAFFIRLLAGIPAPVYFGALIDRTCLHWGTLKCGQPGACRMYDINRFRHIYLGLPAAVRGSSFLPAVFILILMRKFHFPGDIHSPDTELAEMKLTEKESECTDVCRSPKVENDGELKTKL
- Km [1]: 8.2 µM
- Km [2]: 8.2 µM

From ChEMBL document CHEMBL2074192, “Functional analysis and androgen-regulated expression of mouse organic anion transporting polypeptide 1 (Oatp1) in the kidney” (Biochim Biophys Acta, 2001)
